Measurements as given in PMC3420887.

How the values were obtained:
6HisRamB [1] = target: T1, 6HisRamB (UniProt P9WMI1); assay: SPR; conditions: 50 mM Tris-HCl pH 7.5, 50 mM KCl, 10 mM MgCl2, 10% glycerol, 0.5 mM EDTA; […], SA chip)
T1 sequence: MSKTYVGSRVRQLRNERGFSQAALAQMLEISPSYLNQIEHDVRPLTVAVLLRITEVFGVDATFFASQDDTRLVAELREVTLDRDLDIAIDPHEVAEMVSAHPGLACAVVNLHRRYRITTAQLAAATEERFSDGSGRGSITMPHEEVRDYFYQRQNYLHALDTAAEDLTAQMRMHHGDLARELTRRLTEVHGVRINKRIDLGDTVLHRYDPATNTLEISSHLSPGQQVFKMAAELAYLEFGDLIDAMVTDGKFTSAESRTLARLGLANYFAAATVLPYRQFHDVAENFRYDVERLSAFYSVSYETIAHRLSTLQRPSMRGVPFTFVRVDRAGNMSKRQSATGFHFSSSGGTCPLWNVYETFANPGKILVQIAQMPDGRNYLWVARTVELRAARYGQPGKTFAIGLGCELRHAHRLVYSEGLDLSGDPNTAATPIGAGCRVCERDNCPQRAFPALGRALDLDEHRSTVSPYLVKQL

[2] = target: T2, 6HisPrpR (PrpRMt) (Mycobacterium tuberculosis H37Rv) (UniProt O06581); assay: SPR; conditions: 50 mM Tris-HCl pH 7.5, 50 mM KCl, 10 mM MgCl2, 10% glycerol, 0.5 mM EDTA; […], SA chip)
T2 sequence: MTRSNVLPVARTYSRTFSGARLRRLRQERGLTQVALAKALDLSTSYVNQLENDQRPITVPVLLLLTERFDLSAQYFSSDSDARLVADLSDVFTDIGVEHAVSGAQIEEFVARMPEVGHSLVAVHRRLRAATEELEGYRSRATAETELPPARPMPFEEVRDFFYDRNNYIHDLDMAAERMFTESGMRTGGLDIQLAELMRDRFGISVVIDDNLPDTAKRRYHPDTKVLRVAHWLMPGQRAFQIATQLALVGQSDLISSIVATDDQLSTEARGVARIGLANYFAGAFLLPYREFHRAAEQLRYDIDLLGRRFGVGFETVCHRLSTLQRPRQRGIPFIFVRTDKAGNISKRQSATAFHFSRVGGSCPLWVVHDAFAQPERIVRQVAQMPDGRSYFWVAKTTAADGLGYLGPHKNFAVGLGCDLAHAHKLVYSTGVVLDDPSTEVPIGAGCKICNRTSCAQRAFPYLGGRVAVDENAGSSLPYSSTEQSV

[3] = target: T2, 6HisPrpR (PrpRMt) (Mycobacterium tuberculosis H37Rv); assay: EMSA; conditions: 50 mM Tris-HCl pH 7.5, 50 mM KCl, 10 mM MgCl2, 10% glycerol, 0.5 mM EDTA; […], SA chip)
[4] = system: 6HisPrpR (PrpRMt) (Mycobacterium tuberculosis H37Rv); assay: SPR; conditions: 50 mM Tris-HCl pH 7.5, 50 mM KCl, 10 mM MgCl2, 10% glycerol, 0.5 mM EDTA; 25 C, 30 min (EMSA, footprinting); same buffer for SPR (BIAcore T3000, SA chip)
6HisRamB [5] = assay: SPR; conditions: 50 mM Tris-HCl pH 7.5, 50 mM KCl, 10 mM MgCl2, 10% glycerol, 0.5 mM EDTA; […], SA chip)

Row | Substance | Kd (6HisRamB [1]) | Kd [2] | binding [3] | Kd [4] | Kd (6HisRamB [5])
1 | GGCGGTCGAACACGTCGGGGTGACCGTCGGGCACGGGCATCAATTTTTTGTCGAGGCTCACGGCGTTCTCCCCATTTCCTCCTCGCGTGTACCTCAGGCTCACCCTTGAGTCCCGGTGCGAATCATGCCAACGCCGTGGCGGAAACACCAATCGCAGCACGCTTGCTAACTCTGCGAATGGCGTCTTCACAACACCCGGTACGCTCGGTTGGGTGTCCAAGACCTACGTCGGCTCGCGGGTCCGCCAACTGCCC (double strand) [pramB] | 328 nM | 32 nM | binds |  | 
2 | GGGTGCCTCCGATCCGAGCTCGGACTCGGCAAGTACCGCCACTTTCATGACCGCGCGAGGTGGTGCGTCGGGAGCGCTACTGGTGTTCGTGTTCGCTGACGACATGTAGCGGGCAGCTCCTCTTCCGGGCGGTTCGTTTGCAAACGATACGCATGCTGTGTGTAGATTTCCCACCTCCCGACAGCCGAGACGACGACATGTGCTGGAGTTATTGCCTTCGACTTGACGGTTGATCGTTAGCACC (double strand) [pkstR] |  | 25 nM | binds |  | 
3 | GGTGCTCCGCGCTCTTCGGGGTGCCGACGACAGACATAGACAACTCCTTAACGGTCTTTCATTGCCGAAAACGCTGACGCCCTACCGTCGTCCAGGCGGTGTCAACGGCGCAGCTTCACTGGTGTGCTAACTCGACCATGGCACAGCGTGTCAACGCTGGTCCACCCATTTCACTTGCGAATTTCGGCAACGGCCTGCGGACTTTTTGCAAATTTTGCGAAGTCGCCCAAAAACTGAACCGTTTCAGAAGCTACCCGCCAGTAACGACAAATCCGCAGGTAAACCCCC (double strand) [picl1] |  |  | binds |  | 
4 | pkstR |  |  |  | 25 nM | 
5 | pramB |  |  |  | 32 nM | 328 nM
